Reference: PMC10507018, “Structure of human drug transporters OATP1B1 and OATP1B3” (Nature Communications, 2023)

Assays:
[1] = molecular target: T1, Human OATP1B1 (organic anion transporting polypeptide 1B1) (human, UniProt Q9Y6L6, N-glycosylation sites N134, N516); assay: cryo-EM structure; OATP1B1 in lipid nanodiscs (MSP1D1, brain polar lipids with cholesterol), premixed with 1:1.75 molar excess Fab18, SEC in HBS (25 mM HEPES pH 7.4, 150 mM NaCl), with 0.065 mM E1S; conditions: both partners purified
T1 construct: wild-type human OATP1B1, gene codon-optimised for human cells (GenScript), in pcDNA5 with a cleavable C-terminal YFP-1D4 tag; The tag was removed with 3C protease after nanodisc reconstitution and before Fab18 was added for cryo-EM; also called SLCO1B1; not shown: YFP, C-terminal, cleaved; 1D4, C-terminal, cleaved

[2] = molecular target: T2, Human OATP1B3 (organic anion transporting polypeptide 1B3) (human, UniProt Q9NPD5, N-glycosylation sites N134, N516); assay: cryo-EM structure; OATP1B3 in lipid nanodiscs (MSP1D1, brain polar lipids with cholesterol), premixed with Fab19 at a molar ratio of 1:1, SEC in HBS (25 mM HEPES pH 7.4, 150 mM NaCl), with 0.05 mM atazanavir; conditions: both partners purified
T2 construct: wild-type human OATP1B3, gene codon-optimised for human cells (GenScript), in pcDNA5 with a cleavable C-terminal YFP-1D4 tag; also called SLCO1B3; not shown: YFP, C-terminal, cleaved; 1D4, C-terminal, cleaved
T2 sequence (Q9NPD5 whole entry): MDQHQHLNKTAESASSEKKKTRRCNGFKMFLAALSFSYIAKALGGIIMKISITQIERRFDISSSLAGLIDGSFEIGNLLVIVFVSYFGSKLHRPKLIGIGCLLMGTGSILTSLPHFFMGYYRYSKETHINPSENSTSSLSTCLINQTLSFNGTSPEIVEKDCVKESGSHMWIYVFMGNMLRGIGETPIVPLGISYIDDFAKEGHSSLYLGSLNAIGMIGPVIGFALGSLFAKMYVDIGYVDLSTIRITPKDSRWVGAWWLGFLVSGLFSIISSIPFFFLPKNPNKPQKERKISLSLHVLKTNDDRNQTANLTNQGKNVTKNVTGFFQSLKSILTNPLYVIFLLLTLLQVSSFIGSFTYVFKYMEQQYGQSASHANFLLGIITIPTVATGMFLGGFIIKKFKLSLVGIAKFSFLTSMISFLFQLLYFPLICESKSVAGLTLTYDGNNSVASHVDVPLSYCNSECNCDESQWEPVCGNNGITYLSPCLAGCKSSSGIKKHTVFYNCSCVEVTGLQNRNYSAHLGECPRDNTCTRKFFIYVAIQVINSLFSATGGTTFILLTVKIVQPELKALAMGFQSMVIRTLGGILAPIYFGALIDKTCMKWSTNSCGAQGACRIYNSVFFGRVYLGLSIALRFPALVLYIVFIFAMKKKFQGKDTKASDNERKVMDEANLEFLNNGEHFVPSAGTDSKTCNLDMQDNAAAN

T1 sequence (Q9Y6L6 whole entry): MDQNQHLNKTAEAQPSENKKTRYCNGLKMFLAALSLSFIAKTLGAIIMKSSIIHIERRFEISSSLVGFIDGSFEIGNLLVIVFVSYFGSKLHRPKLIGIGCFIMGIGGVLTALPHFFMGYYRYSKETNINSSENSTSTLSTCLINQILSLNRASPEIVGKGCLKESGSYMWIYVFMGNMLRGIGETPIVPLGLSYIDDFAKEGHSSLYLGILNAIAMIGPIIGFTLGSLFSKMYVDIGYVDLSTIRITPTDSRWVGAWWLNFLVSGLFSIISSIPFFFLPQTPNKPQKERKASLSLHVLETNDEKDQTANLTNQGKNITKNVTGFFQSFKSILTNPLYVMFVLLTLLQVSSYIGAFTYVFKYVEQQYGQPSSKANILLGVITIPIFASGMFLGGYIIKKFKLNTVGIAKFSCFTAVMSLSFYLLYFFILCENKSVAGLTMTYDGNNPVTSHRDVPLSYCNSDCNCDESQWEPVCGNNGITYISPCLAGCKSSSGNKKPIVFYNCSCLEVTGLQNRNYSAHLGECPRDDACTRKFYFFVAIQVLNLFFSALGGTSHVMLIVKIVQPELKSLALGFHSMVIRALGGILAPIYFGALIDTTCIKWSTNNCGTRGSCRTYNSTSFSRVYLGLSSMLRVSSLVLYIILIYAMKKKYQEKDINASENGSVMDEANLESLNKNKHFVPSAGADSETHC

| Binder | binding result [1] | binding result [2] |
| --- | --- | --- |
| Fab18 (Fab, V domains shown, heavy chain (HC) of Fab18 in PDB 8PHW; selected by phage display from synthetic Fab library E against OATP1B3; light chain (LC) of Fab18 in PDB 8PHW; also called synthetic Fab fragment Fab18; source: E. coli C43 (Pro+), pRH2.2, purified (Protein L, Resource S)) VH: EVQLVESGGGLVQPGGSLRLSCAASGFNFSSSSIHWVRQAPGKGLEWVASISSSSGSTSYADSVKGRFTISADTSKNTAYLQMNSLRAEDTAVYYCARYGWGGPWYYWLRDSRSGIDYWGQGTLVTVSS VL: DIQMTQSPSSLSASVGDRVTITCRASQSVSSAVAWYQQKPGKAPKLLIYSASSLYSGVPSRFSGSRSGTDFTLTISSLQPEDFATYYCQQSSSSLITFGQGTKVEIK | binds | – |
| Fab19 (Fab, V domains shown, heavy chain (HC) of Fab19 in PDB 8PG0; selected by phage display from synthetic Fab library E against OATP1B3; light chain (LC) of Fab19 in PDB 8PG0; also called synthetic Fab fragment Fab19; source: E. coli C43 (Pro+), pRH2.2, purified (Protein L, Resource S)) VH: EVQLVESGGGLVQPGGSLRLSCAASGFNFSSSSIHWVRQAPGKGLEWVASISSSSGSTSYADSVKGRFTISADTSKNTAYLQMNSLRAEDTAVYYCARYYIKRWWLMSWEDYSMGLDYWGQGTLVTVSS VL: DIQMTQSPSSLSASVGDRVTITCRASQSVSSAVAWYQQKPGKAPKLLIYSASSLYSGVPSRFSGSRSGTDFTLTISSLQPEDFATYYCQQSSSSLITFGQGTKVEIK | – | binds |
